The record followed here is patent US6680170B2, “Polynucleotides encoding STE20-related protein kinases and methods of use” (Sugen, Inc., priority 1998, dated 2004).

The Km is the concentration of substrate that gives half-maximal velocity.

In one assay the target is T1, PAK5 (Homo sapiens, UniProt O96013).
T1 construct: made in house; host or cells: 293 cells (transient transfection, immunopurified on protein A sepharose) or bacteria (GST fusion)
As to the kind of experiment: In vitro kinase assay, activation loop peptides as PAK5 substrates. The conditions noted are these: for substrate: peptide substrates at 2.5 μM. It counts as biochemical. The method, then: (§1) Three days after transfection with the STE20-related kinase expression contructs, a 10 cm plate of 293 cells was washed with PBS and solubilized on ice with 2 mL PBSTDS containing phosphatase inhibitors (10 mM NaHPO4, pH 7.25, 150 mM NaCl, 1% Triton X-100, 0.5% deoxycholate, 0.1% SDS, 0.2% sodium azide, 1 mM NaF, 1 mM EGTA, 4 mM sodium orthovanadate, 1% aprotinin, 5 μg/mL leupeptin). Cell debris was removed by centrifugation (12000× g, 15 min, 4° C.) and the lysate was precleared by two successive incubations with 50 μL of a 1:1 slurry of protein A sepharose for 1 hour each. One-half mL of the cleared supernatant was reacted with 10 μL of protein A purified kinase-specific antisera (generated from the GST fusion protein or antipeptide antisera) plus 50 μL of a 1:1 slurry of protein A-sepharose for 2 hr at 4° C. The beads were then washed 2 times in PBSTDS, and 2 times in HNTG (20 mM HEPES, pH 7.5/150 mM NaCl, 0,1% Triton X-100, 10% glycerol).
The immunopurified kinases on sepharose beads were resuspended in 20 μL HNTG plus 30 mM MgCl2, 10 mM MnCl2, and 20 μCi […] (3000 Ci/mmol). The kinase reactions were run for 30 min at room temperature, and stopped by addition of HNTG supplemented with 50 mM EDTA. The samples were washed 6 times in HNTG, boiled 5 min in SDS sample buffer and analyzed by 6% SDS-PAGE followed by autoradiography. Phosphoamino acid analysis was performed by standard 2D methods on ^32P-labeled bands excised from the SDS-PAGE gel.
Similar assays were performed on bacterially expressed GST-fusion constructs of the kinases.
20 mM Hepes pH 7.2, 130 mM KCl, 10 mM MgCl2, 1 mM NaF, 20 mM B-glycerolphosphate, 0.5 mM DTT, 50 μM ATP, 0.5 μCi ^32PyATP.
Substrates: MBP at 0.28 mg/mL and peptide substrates derived from PAK5 activation loop at 2.5 μM.
To aid in the development of in vitro kinase assays for screening small molecule libraries to identify specific inhibitors, the search for specific peptide substrates for PAK5 was undertaken.
The rationale used to design such peptides is based on the hypothesis that upon binding activated small G protein, PAK5 undergoes a conformational change that results in derepression of its kinase activity followed by autophosphorylation on the activation loop resulting in a fully active kinase. The site of autophosphorylation for related family members has been identified by biochemical and/or genetic means (e.g. Wu, C, et al. J.Biol.Chem 270:15984-15992 and Szczepanowska, et al. Proc.Natl.Acad.Sci 94, 8503-8508, 1997). Specific peptide substrates for PAKS were designed from the sequence of the activation loop of this kinase.

The target in another assay is T2, PAK4 (Homo sapiens, UniProt Q9NQU5).
T2 construct: made in house; host or cells: 293 cells (transient transfection, immunopurified) or bacteria (GST fusion)
T2 sequence (Q9NQU5 whole entry, the tested form may be a part): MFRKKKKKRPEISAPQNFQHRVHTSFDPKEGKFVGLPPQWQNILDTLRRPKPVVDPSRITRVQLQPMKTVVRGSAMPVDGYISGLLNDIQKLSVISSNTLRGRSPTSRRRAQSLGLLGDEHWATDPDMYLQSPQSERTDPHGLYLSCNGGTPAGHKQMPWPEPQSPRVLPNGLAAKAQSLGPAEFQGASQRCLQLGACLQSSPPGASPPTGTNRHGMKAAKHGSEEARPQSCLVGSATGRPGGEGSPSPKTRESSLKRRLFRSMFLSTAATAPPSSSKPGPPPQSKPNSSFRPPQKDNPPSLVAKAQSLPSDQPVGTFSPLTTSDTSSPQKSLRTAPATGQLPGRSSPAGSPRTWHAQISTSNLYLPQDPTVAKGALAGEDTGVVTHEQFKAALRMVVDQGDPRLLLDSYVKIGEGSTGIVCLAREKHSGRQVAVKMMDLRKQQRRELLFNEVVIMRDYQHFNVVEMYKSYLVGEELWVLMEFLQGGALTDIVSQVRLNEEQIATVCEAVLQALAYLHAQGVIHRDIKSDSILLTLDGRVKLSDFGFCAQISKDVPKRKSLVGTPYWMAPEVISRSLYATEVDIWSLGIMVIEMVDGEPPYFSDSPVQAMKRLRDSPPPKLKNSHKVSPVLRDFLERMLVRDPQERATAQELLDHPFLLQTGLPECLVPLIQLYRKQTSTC
As to the kind of experiment: In vitro kinase assay, activation loop peptide as PAK4 substrate. It counts as biochemical. As for the experimental part: as §1
The immunopurified kinases on sepharose beads were resuspended in 20 μL HNTG plus 30 mM MgCl2, 10 mM MnCl2, and 20 μCi […] (3000 Ci/mmol). The kinase reactions were run for 30 min at room temperature, and stopped by addition of HNTG supplemented with 50 mM EDTA. The samples were washed 6 times in HNTG, boiled 5 min in SDS sample buffer and analyzed by 6% SDS-PAGE followed by autoradiography. […]

Where no end group is shown, it is not given here.

T1 sequence (O96013 whole entry, the tested form may be a part): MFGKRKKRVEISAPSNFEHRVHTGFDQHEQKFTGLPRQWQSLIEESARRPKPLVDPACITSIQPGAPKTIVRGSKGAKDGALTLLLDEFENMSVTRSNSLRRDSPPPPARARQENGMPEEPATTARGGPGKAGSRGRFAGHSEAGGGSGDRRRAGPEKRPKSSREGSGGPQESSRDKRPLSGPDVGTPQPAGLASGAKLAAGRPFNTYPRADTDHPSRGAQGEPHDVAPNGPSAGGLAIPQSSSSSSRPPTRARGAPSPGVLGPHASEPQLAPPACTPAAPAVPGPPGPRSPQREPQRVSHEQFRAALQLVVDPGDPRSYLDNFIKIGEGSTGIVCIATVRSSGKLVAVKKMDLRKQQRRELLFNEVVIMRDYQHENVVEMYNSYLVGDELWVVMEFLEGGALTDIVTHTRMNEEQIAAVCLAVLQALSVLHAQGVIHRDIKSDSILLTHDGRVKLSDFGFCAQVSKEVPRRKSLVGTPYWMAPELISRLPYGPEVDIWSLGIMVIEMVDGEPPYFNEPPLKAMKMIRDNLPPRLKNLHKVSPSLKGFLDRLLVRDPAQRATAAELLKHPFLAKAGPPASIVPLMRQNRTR

Consider “(C) RRKSLVGTPYWMAPE [3] (CRRKSLVGTPYWMAPE; also: phosphorylated residue) [Peptide 3, phosphorylated residue marking not visible]”, for which the substrate result with PAK5 is listed as “no”. On the same count and under the same terms, next, RNKVRKTFVGTPCWMAPE [Peptide 9]: “poor”.

With “(C) RRKSLVGTPYWMAPE (CRRKSLVGTPYWMAPE; N-terminal cysteine) [Peptide 10]”, in the assay with PAK4, the “Notes: Km for PAK4 compared with PAK5” value is on record as “Same Km as phosph. by PAK5” and the substrate entry was “yes”. As for KRNTFVGTPFWMAPE [Peptide 5], the substrate entry with PAK5 is recorded as “poor”.

For the substance “(C) RRKSLVGTPYWMAPE [1] (CRRKSLVGTPYWMAPE; N-terminal cysteine) [Peptide 1]”, in the assay with PAK5, the “Notes: substrate quality relative to MBP or other peptides” value is “Equally well as MBB” and the substrate result is recorded as “yes”. For KRKSFIGTPYWMAPE [Peptide 4], in that order: “Similiar to peptide 1” and “yes”. With “RRNTFIGTPYWMAPE (also: phosphorylated residue) [Peptide 8, phosphorylated residue marking not visible]”, the “Notes: substrate quality relative to MBP or other peptides” value in the assay with PAK5 is “Better than 7”. For the substance RRNTFIGTPYWMAPE [Peptide 7], the substrate entry in the assay with PAK5 is reported as “poor”. On the same count and under the same terms, in the case of PANSFVGTPYWMAPE [Peptide 6] it was “poor”.

On to “(C) RRKSLVGTPYWMAPE [2] (CRRKSLVGTPYWMAPE; also: phosphorylated residue) [Peptide 2, phosphorylated residue marking not visible]”, for which the Michaelis constant (Km) in the assay with PAK5 (Notes column) was 1 to 10 µM. Besides, the substrate entry with PAK5 is reported as “yes”.
